Data as given in patent US20250000946A1 (WUXI BIOLOGICS IRELAND, published 2025).

Columns and labels:
[1] = biological target: T1, Human IL-2Rα/β/γ complex (high affinity IL-2 receptor) (human, UniProt P01589 22-272; P14784 27-551; P31785 23-369); experiment: FACS, MJ20 cells; EC50 fold vs T2U0.E44-1
T1 construct: whole, on cells
T1 sequence (looked up) 1: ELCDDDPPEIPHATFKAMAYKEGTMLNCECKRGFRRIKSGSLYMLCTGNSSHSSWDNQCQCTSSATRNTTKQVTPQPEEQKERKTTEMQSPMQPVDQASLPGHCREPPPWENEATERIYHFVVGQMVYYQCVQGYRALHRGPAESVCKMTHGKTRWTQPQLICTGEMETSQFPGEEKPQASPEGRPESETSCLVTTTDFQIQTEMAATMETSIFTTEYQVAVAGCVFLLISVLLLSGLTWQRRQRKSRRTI
T1 sequence (looked up) 2: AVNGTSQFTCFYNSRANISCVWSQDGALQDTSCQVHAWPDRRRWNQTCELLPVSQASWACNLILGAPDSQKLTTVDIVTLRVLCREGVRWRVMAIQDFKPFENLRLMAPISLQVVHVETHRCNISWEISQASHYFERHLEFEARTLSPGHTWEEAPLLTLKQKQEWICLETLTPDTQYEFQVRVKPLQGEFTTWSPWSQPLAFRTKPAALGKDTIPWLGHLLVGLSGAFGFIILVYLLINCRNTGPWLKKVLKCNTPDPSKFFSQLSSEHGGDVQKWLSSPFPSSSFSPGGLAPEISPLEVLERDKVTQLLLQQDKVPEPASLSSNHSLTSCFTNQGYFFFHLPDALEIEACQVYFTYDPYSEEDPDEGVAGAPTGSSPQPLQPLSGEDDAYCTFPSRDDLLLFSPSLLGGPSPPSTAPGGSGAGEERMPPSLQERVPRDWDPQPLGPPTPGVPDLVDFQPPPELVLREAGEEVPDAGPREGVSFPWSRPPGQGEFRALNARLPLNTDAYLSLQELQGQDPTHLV
T1 sequence (looked up) 3: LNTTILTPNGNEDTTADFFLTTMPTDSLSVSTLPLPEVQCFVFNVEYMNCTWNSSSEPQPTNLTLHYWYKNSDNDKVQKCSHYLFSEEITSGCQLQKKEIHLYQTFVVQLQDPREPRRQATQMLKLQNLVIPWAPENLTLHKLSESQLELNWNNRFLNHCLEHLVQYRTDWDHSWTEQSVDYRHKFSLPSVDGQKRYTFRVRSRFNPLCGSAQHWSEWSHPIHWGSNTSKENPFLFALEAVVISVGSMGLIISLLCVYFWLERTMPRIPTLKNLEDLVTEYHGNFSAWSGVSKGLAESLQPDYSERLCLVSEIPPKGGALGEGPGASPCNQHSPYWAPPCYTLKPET
Description: (§1) Human cutaneous T cell lymphoma HH cells, malignant non-Hodgkin's lymphoma NK92 cells and cutaneous T cell lymphoma MJ20 cells were used for binding assay. They both constitutively express IL-2Rβ (CD122) and […] (CD132), and NK92 and MJ20 also expresses IL-2Rα (CD25). HH, NK92 and MJ20 cells were cultured following ATCC guidance, then transferred to a 96-plate for binding analysis. Cells were incubated with IL-2/Fc fusion proteins at the indicated concentrations for 30 min at 4° C. to avoid internalization. Binding was detected by 2nd antibody of PE-anti-human Fc at 4° C. for another 30 min. The median fluorescence intensity (MFI) on HH and NK92 cells was measured using FACS.
(§2) Affinity of IL-2 variants to IL-2Rα/β/γ supported the same results (FIG. 8 and Table 7). […] And T2U0.E44-26, T2U0.E44-27, T2U0.E44-29 and T2U0.E44-30 induced hundreds to thousands affinity reduction in Treg compared to T2U0.E44-1. Binding curves in MJ20 cells (IL-2Rα/β/γ) also achieved similar trend (FIG. 8b). As a result, the method of C-terminal truncation and substitution of 129 was available to achieve IL-2Rβγ attenuated IL-2 variants.

[2] = biological target: T1, Human IL-2Rα/β/γ complex (high affinity …); experiment: FACS, MJ20 cells
Description: as §1, §2

[3] = biological target: T1, Human IL-2Rα/β/γ complex (high affinity …); experiment: cell-based or functional assay
[4] = biological target: T2, Human IL-2Rβ/γ (intermediate affinity IL-2 receptor) (human, UniProt P14784 27-551; P31785 23-369); experiment: cell-based or functional assay
T2 sequence (looked up) 1: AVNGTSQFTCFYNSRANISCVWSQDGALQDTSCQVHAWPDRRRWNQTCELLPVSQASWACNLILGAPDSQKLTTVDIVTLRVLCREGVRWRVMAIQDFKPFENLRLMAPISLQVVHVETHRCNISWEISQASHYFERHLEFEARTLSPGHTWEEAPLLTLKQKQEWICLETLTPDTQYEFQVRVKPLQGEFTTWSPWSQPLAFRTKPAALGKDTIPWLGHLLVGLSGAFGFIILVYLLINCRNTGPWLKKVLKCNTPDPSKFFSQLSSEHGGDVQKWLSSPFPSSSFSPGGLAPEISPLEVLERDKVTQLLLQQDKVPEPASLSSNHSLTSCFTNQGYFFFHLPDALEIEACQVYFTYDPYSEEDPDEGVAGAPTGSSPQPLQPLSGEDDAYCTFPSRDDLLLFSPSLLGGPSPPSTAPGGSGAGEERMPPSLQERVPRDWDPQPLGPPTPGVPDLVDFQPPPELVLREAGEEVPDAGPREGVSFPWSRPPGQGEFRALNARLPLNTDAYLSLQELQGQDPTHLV
T2 sequence (looked up) 2: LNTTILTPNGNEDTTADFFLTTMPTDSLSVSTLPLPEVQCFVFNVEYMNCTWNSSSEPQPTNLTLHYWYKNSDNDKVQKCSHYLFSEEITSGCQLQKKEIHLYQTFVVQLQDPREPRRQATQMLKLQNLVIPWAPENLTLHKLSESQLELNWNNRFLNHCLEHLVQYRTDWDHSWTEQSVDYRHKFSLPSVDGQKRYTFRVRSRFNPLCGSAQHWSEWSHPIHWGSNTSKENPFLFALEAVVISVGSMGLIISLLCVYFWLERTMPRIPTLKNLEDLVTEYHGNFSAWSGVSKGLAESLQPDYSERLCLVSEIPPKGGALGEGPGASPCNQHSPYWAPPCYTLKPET

[5] = biological target: T2, Human IL-2Rβ/γ (intermediate affinity …); experiment: FACS, HH cells
Description: as §1

[6] = biological target: T2, Human IL-2Rβ/γ (intermediate affinity …); experiment: FACS, HH cells; EC50 fold vs T2U0.E44-1
Description: as §1

B1: W3XX115-T2U0.E44-24.uIgG4V1 (Fc fusion)
chain: APTSSSTKKTQLQLEHLLLDLQMILNGINNYKNPKLTRMLTFKFYMPKKATELKHLQCLEEELKPLEEVLNLAQSKNFHLRPRDLISNINVIVLELKGSETTFMCEYADETATIVEFLNRWITFCQSIISKYGPPCPPCPAPEFLGGPSVFLFPPKPKDTLMISRTPEVTCVVVDVSQEDPEVQFNWYVDGVEVHNAKTKPREEQFNSTYRVVSVLTVLHQDWLNGKEYKCKVSNKGLPSSIEKTISKAKGQPREPQVYTLPPCQEEMTKNQVSLWCLVKGFYPSDIAVEWESNGQPENNYKTTPPVLDSDGSFFLYSRLTVDKSRWQEGNVFSCSVMHEALHNHYTQKSLSLSLG
heavy: EIQLQQSGPELVKPGASVKVSCKASGYSFTDYNMYWVKQSHGESLEWIGYIDPYNGGTRYNQKFKGKATLTVDKSSSTAFMHLNSLTSEDSAVYYCARNGHWDGAWFAYWGQGTLVTVSAASTKGPSVFPLAPCSRSTSESTAALGCLVKDYFPEPVTVSWNSGALTSGVHTFPAVLQSSGLYSLSSVVTVPSSSLGTKTYTCNVDHKPSNTKVDKRVESKYGPPCPPCPAPEFLGGPSVFLFPPKPKDTLMISRTPEVTCVVVDVSQEDPEVQFNWYVDGVEVHNAKTKPREEQFNSTYRVVSVLTVLHQDWLNGKEYKCKVSNKGLPSSIEKTISKAKGQPREPQVCTLPPSQEEMTKNQVSLSCAVKGFYPSDIAVEWESNGQPENNYKTTPPVLDSDGSFFLVSRLTVDKSRWQEGNVFSCSVMHEALHNHYTQKSLSLSLG
light: DIQMNQSPSSLSASLGDTITITCHASQNINVWLSWYQQKPGNIPKLLIYKASNLHTGVPSRFSGSRSGTGFTLTISSLQPEDIATYYCHQGQSYPFTFGSGTKLEIKRTVAAPSVFIFPPSDEQLKSGTASVVCLLNNFYPREAKVQWKVDNALQSGNSQESVTEQDSKDSTYSLSSTLTLSKADYEKHKVYACEVTHQGLSSPVTKSFNRGEC
notes: IL-2 del STLT and 1 aa deleted in IgG4 N-terminal hinge; E44 format
Q: What does the source list for B1?
A: Affinity reduction [1]: 1.3 fold; EC50 [2]: 18.4 nM; Potency in human Treg EC50 [3]: 0.003 nM; Potency reduction (Treg) [3]: 1.2 fold; Potency in human CD8+ T EC50 [4]: 125 nM; Potency reduction (CD8+ T) [4]: 6.3 fold; EC50 [5]: 438 nM; Affinity reduction [6]: 8.1 fold

B2: W3XX115-T2U0.E44-25.uIgG4V1 (Fc fusion)
chain: APTSSSTKKTQLQLEHLLLDLQMILNGINNYKNPKLTRMLTFKFYMPKKATELKHLQCLEEELKPLEEVLNLAQSKNFHLRPRDLISNINVIVLELKGSETTFMCEYADETATIVEFLNRWITFCQSIIKYGPPCPPCPAPEFLGGPSVFLFPPKPKDTLMISRTPEVTCVVVDVSQEDPEVQFNWYVDGVEVHNAKTKPREEQFNSTYRVVSVLTVLHQDWLNGKEYKCKVSNKGLPSSIEKTISKAKGQPREPQVYTLPPCQEEMTKNQVSLWCLVKGFYPSDIAVEWESNGQPENNYKTTPPVLDSDGSFFLYSRLTVDKSRWQEGNVFSCSVMHEALHNHYTQKSLSLSLG
heavy: EIQLQQSGPELVKPGASVKVSCKASGYSFTDYNMYWVKQSHGESLEWIGYIDPYNGGTRYNQKFKGKATLTVDKSSSTAFMHLNSLTSEDSAVYYCARNGHWDGAWFAYWGQGTLVTVSAASTKGPSVFPLAPCSRSTSESTAALGCLVKDYFPEPVTVSWNSGALTSGVHTFPAVLQSSGLYSLSSVVTVPSSSLGTKTYTCNVDHKPSNTKVDKRVESKYGPPCPPCPAPEFLGGPSVFLFPPKPKDTLMISRTPEVTCVVVDVSQEDPEVQFNWYVDGVEVHNAKTKPREEQFNSTYRVVSVLTVLHQDWLNGKEYKCKVSNKGLPSSIEKTISKAKGQPREPQVCTLPPSQEEMTKNQVSLSCAVKGFYPSDIAVEWESNGQPENNYKTTPPVLDSDGSFFLVSRLTVDKSRWQEGNVFSCSVMHEALHNHYTQKSLSLSLG
light: DIQMNQSPSSLSASLGDTITITCHASQNINVWLSWYQQKPGNIPKLLIYKASNLHTGVPSRFSGSRSGTGFTLTISSLQPEDIATYYCHQGQSYPFTFGSGTKLEIKRTVAAPSVFIFPPSDEQLKSGTASVVCLLNNFYPREAKVQWKVDNALQSGNSQESVTEQDSKDSTYSLSSTLTLSKADYEKHKVYACEVTHQGLSSPVTKSFNRGEC
notes: IL-2 del STLT and 2 aa deleted in IgG4 N-terminal hinge; E44 format
Q: What does the source list for B2?
A: Affinity reduction [1]: 4.5 fold; EC50 [2]: 63.2 nM; Potency in human Treg EC50 [3]: 0.022 nM; Potency reduction (Treg) [3]: 8.8 fold; Potency in human CD8+ T EC50 [4]: 84.9 nM; Potency reduction (CD8+ T) [4]: 4.2 fold; EC50 [5]: 1280 nM; Affinity reduction [6]: 23.8 fold
